Among the data in PMC11430614, “Bacterial Purine Nucleoside Phosphorylases from Mesophilic and Thermophilic Sources: Characterization of Their Interaction with Natural Nucleosides and Modified Arabinofuranoside Analogues” (Biomolecules, 2024) are Km and kcat values, retold here.

Data set [1] concerns T1, EntPNP (PNP from Enterobacter).
T1 construct: commercial preparation (Sigma-Aldrich); acts on 6-oxopurine nucleosides only
As to the kind of experiment: HPLC phosphorolysis assay, Michaelis-Menten fit. It counts as biochemical, Enterobacter sp. As to conditions: 50 mM KH2PO4, pH 7.5, 25 °C, tested up to 4 mM, no plateau. From the text:
HPLC phosphorolysis assay, Michaelis-Menten fit on EntPNP (PNP from Enterobacter)

Data set [2] shares this test system. In words: coupled xanthine oxidase assay, […] nm, Michaelis-Menten fit. Particulars: 50 mM KH2PO4, pH 7.5, 25 °C; phosphorolysis. It is filed as biochemical, Enterobacter sp.
Data set [3] has as its system Nc1ncnc2c1ncn2[C@@H]1O[C@H](CO)[C@@H](O)[C@H]1O. In words: purified protein. Particulars: 50 mM KH2PO4, pH 7.5, 25 °C, phosphorolysis.
Substrate in data set [4]: O=c1[nH]cnc2c1ncn2[C@@H]1O[C@H](CO)[C@@H](O)[C@@H]1O
As to the kind of experiment: HPLC phosphorolysis assay, Michaelis-Menten fit. It is filed as biochemical, Escherichia coli. As to conditions: 50 mM KH2PO4, pH 7.5, 25 °C, tested up to 4 mM, no plateau. From the text: HPLC phosphorolysis assay, Michaelis-Menten fit on EcPNP

Substrate in the data set “purified protein”: OC[C@H]1O[C@@H](n2cnc3c(O)ncnc32)[C@H](O)[C@@H]1O
In words: purified protein. It is filed as biochemical, Escherichia coli. Particulars: 50 mM KH2PO4, pH 7.5, 25 °C, phosphorolysis.

As a reminder, the Km is the substrate concentration at which the rate is half of its maximum. In general, kcat refers to the number of substrate molecules converted per active site and unit of time at saturation.

Take `O=c1[nH]cnc2c1ncn2[C@@H]1O[C@H](CO)[C@@H](O)[C@@H]1O` [9-(β-D-arabinofuranosyl)hypoxanthine]: the Km in data set [1] was found to be 2.9 ± 0.831 mM.

With `O=c1[nH]cnc2c1ncn2[C@@H]1O[C@H](CO)[C@@H](O)[C@H]1O` [inosine], the Km in data set [2] amounted to 107 ± 21 µM.

As to EcPNP (Escherichia coli K-12), in data set [3], the Km came out at 21 ± 5 µM and the kcat came out at 137.7 s⁻¹.

B1: EcPNP (Escherichia coli K-12) (protein)
chain: ATPHINAEMGDFADVVLMPGDPLRAKYIAETFLEDAREVNNVRGMLGFTGTYKGRKISVMGHGMGIPSCSIYTKELITDFGVKKIIRVGSCGAVLPHVKLRDVVIGMGACTDSKVNRIRFKDHDFAAIADFDMVRNAVDAAKALGIDARVGNLFSADLFYSPDGEMFDVMEKYGILGVEMEAAGIYGVAAEFGAKALTICTVSDHIRTHEQTTAAERQTTFNDMIKIALESVLLGDKE
notes: recombinant from plasmid pER-EcPNP, host E. coli ER2566
Turning to B1, in data set [4], the Km is given as 1810 ± 371 µM and the kcat stood at 0.709 s⁻¹. In addition, in “purified protein”, the Km is recorded as 76 ± 21 µM and the kcat was found to be 29.2 s⁻¹.
